Experimental findings from IntAct's records for PubMed 20142513 are described below.

B1: Multiple coagulation factor deficiency protein 2 (Homo sapiens), Q8NI22 (parent)
chain: MTMRSLLRTPFLCGLLWAFCAPGARAEEPAASFSQPGSMGLDKNTVHDQEHIMEHLEGVINKPEAEMSPQELQLHYFKMHDYDGNNLLDGLELSTAITHVHKEEGSEQAPLMSEDELINIIDGVLRDDDKNNDGYIDYAEFAKSLQ
partner: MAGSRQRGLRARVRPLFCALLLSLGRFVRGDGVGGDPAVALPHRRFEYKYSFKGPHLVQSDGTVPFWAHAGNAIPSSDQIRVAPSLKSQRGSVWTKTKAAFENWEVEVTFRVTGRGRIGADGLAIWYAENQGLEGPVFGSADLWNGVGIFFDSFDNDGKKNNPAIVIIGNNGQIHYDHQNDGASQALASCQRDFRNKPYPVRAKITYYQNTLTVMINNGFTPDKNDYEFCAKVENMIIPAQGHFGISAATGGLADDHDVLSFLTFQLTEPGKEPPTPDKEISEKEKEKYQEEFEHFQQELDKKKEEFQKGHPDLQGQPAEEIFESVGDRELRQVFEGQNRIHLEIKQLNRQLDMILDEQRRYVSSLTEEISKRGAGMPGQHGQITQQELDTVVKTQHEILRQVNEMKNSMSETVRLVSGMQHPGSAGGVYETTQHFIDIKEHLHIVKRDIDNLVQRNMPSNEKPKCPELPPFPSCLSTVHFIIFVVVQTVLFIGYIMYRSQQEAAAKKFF
B2: Protein ERGIC-53 (Homo sapiens), P49257 (parent)
chain: B1 partner
partner: B1 chain

The first assay covers variants of B1. The settings on record: with lman1_human LMAN1, P49257.
With MTMRSLLRTPFLCGLLWAFCAPGARAEEPAASFSQPGSMGLDKNTVHDQEHIMEHLEGVINKPEAEMSPQELQLHYFKMHDYDGNNLLAGLELSTAITHVHKEEGSEQAPLMSEDELINIIDGVLRDDDKNNDGYIDYAEFAKSLQ [D89A], the “effect of a mutation on the interaction” value is recorded as “disrupting interaction”.

The variants in the next assay derive from B1. The note with it: with lman1_human LMAN1, P49257. The source holds these as a separate data set.
With MTMRSLLRTPFLCGLLWAFCAPGARAEEPAASFSQPGSMGLDKNTVHDQEHIMEHLEGVINKPEAEMSPQELQLHYFKMHDYDGNNLLDGLELSTAITHVHKEEGSEQAPLMSEDELINIIVGVLRDDDKNNDGYIDYAEFAKSLQ [D122V], the “effect of a mutation on the interaction” value was “disrupting interaction”.

The variants in a further assay derive from B1. The settings on record: with lman1_human LMAN1, P49257. This is another data set of the same source.
Consider MTMRSLLRTPFLCGLLWAFCAPGARAEEPAASFSQPGSMGLDKNTVHDQEHIMEHLEGVINKPEAEMSPQELQLHYFKMHDYDGNNLLDGLELSTAITHVHKEEGSEQAPLMSEDELINIIVGVLRDDDKNNDGYIDYAEFAKSLQ [D122V], for which the “effect of a mutation on the interaction” value is on record as “decreasing interaction”.

Variants of B2 are the subject of another assay. The note with it: with mcfd2_human MCFD2, Q8NI22.
As to MAGSRQRGLRARVRPLFCALLLSLGRFVRGDGVGGDPAVALPHRAFEYKYSFKGPHLVQSDGTVPFWAHAGNAIPSSDQIRVAPSLKSQRGSVWTKTKAAFENWEVEVTFRVTGRGRIGADGLAIWYAENQGLEGPVFGSADLWNGVGIFFDSFDNDGKKNNPAIVIIGNNGQIHYDHQNDGASQALASCQRDFRNKPYPVRAKITYYQNTLTVMINNGFTPDKNDYEFCAKVENMIIPAQGHFGISAATGGLADDHDVLSFLTFQLTEPGKEPPTPDKEISEKEKEKYQEEFEHFQQELDKKKEEFQKGHPDLQGQPAEEIFESVGDRELRQVFEGQNRIHLEIKQLNRQLDMILDEQRRYVSSLTEEISKRGAGMPGQHGQITQQELDTVVKTQHEILRQVNEMKNSMSETVRLVSGMQHPGSAGGVYETTQHFIDIKEHLHIVKRDIDNLVQRNMPSNEKPKCPELPPFPSCLSTVHFIIFVVVQTVLFIGYIMYRSQQEAAAKKFF [R45A], the “effect of a mutation on the interaction” value is listed as “decreasing interaction”.
